Substrate in data set [1]: Cc1cc2nc3c(=O)[nH]c(=O)nc-3n(C[C@H](O)[C@H](O)[C@H](O)COP(=O)(O)O)c2cc1C
Description: purified protein. The class given is biochemical, Entamoeba histolytica. The settings on record: apparent, ATP fixed 100 µM (table footnote prints mM), 5 mM MgCl2, 50 mM Tris-HCl pH 7.5, 35°C.

Substrate in data set [2]: Nc1ncnc2c1ncn2[C@@H]1O[C@H](COP(=O)(O)OP(=O)(O)OP(=O)(O)O)[C@@H](O)[C@H]1O
Briefly: purified protein. The settings on record: apparent, FMN fixed 200 µM (table footnote prints mM), 5 mM MgCl2, 50 mM Tris-HCl pH 7.5, 35°C. The class given is biochemical, Entamoeba histolytica.

The values below come from PMC11423594, “Identification and characterization of archaeal-type FAD synthase as a novel tractable drug target from the parasitic protozoa Entamoeba histolytica” (mSphere, 2024).

B1: EhFADS (EHI_198800) (Entamoeba histolytica HM-1:IMSS) (protein)
chain: MKGKTKQTKQILHDLKERFGEGPYEVMIAGTFDLIHPGHIHFIQEAAQFGRVIVIIARDSVVKRIKQRETVLDEKMRQSIVEGIKGVSEVVLGCENGNWYEPILKRNPHLFLMGFNQPGDLFRFEKVIHEKGGRTIFRRSNSMEKSYSLQSSSQIRRRVIEIVNNKIQ
Take B1: in the data set “purified protein [1]”, the Michaelis-Menten constant (Km) was determined as 0.0707 ± 0.0071 mM, the Vmax came out at 0.06 µmol/min/mg and the turnover number (kcat) worked out at 0.0202 ± 0.002 s⁻¹. Besides, in “purified protein [2]”, the Michaelis constant (Km) was found to be 0.0439 ± 0.0079 mM, the Vmax worked out at 0.0649 µmol/min/mg and the catalytic constant (kcat) worked out at 0.0218 ± 0.000333 s⁻¹.

One may read the Km as the concentration of substrate that gives half-maximal velocity. The term Vmax denotes the rate approached at saturating substrate. The kcat is the maximal rate divided by the concentration of active sites.
